Numbered stars: 1 amine (or outer) side, 2 acyl side, 3 side chain; on linkers, the order of the positions; unused ones are H or OH. Square brackets hold non-standard residues; d marks the D form. Primed or numbered codes have the meaning given here. Ends that are not written are not given here. * marks the point of attachment. Ida = iminodiacetic acid, O=C(CN(CC(=O)[*:3])[*:1])[*:2]; PEG8′ = PEG8 conjugated to the Lys side chain; Palmitoyl = CCCCCCCCCCCCCCCC(=O)*; β3hP = O=C(O)C[C@@H]1CCCN1; Isovaleryl = CC(C)CC(=O)*; PEG11′ = not defined here; Isobutyryl = CC(C)C(=O)*; Octanoyl = CCCCCCCC(=O)*
T1: human ferroportin (SLC40A1) fused in frame with GFP, stably expressed in HEK293 cells (human, UniProt Q9NP59 1-571)
T1 sequence (looked up): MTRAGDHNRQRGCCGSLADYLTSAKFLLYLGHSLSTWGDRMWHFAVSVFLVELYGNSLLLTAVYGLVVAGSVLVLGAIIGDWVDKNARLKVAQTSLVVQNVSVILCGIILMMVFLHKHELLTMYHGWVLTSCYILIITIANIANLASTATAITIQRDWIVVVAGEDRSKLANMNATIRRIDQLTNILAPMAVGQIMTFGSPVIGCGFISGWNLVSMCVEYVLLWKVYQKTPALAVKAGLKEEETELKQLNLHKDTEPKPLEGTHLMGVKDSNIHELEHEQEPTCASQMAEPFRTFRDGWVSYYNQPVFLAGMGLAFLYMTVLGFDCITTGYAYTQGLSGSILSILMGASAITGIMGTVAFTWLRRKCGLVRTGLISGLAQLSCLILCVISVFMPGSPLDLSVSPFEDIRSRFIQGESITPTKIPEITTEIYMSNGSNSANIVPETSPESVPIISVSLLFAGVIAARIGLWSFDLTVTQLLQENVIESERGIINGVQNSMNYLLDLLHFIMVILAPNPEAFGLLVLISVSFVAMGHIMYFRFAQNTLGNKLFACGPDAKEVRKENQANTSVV


Biological target: T1, human ferroportin (SLC40A1) fused in …
Test: cell-based or functional assay

| Binder | Potency EC50 | Potency EC50 (nM) |
| --- | --- | --- |
| H-DTHFPCIYFGPRSKGWVCK-NH2 (not fully specified (bridges); printed as Hy-DTHFPCIYFGPRSKGWVCK-NH2; cysteine pairing not given here) [Compound 85] | 705 nM |  |
| H-DTHFPCIRFGPRSRGWVCK-NH2 (cysteine pairing not given here) [Compound 81] |  | > 1000 nM |
| Isovaleryl-DTHFPCIIFGPRSKGWVCKK-NH2 (cysteine pairing not given here) [Compound 145] | 9 nM |  |
| Isovaleryl-DTHFKCIEFGPRSKGWVCK-NH2 (cysteine pairing not given here) [Compound 140] |  | > 1000 nM |
| H-DTHFPCIIFGPRSKGWVCK-NH2 (not fully specified (bridges); printed as Hy-DTHFPCIIFGPRSKGWVCK-NH2; cysteine pairing not given here) [Compound 86] |  | > 1000 nM |
| Octanoyl-DTHFPCIIFGPRSRGWVCK-NH2 (not fully specified (bridges); cysteine pairing not given here) [Compound 88] |  | > 1000 nM |
| Isovaleryl-DTHFSCIIFGPRSKGWVCK-NH2 (not fully specified (bridges); cysteine pairing not given here) [Compound 107] | 50 nM |  |
| H-HFPCIIFGPRSKGWVCM-NH2 (cysteine pairing not given here) [Compound 133] |  | > 1000 nM |
| H-DTHFPCISFGPRSKGWVCM-NH2 (cysteine pairing not given here) [Compound 135] | 545 nM |  |
| Isovaleryl-DTHFPCIIFGPRSKGVC-NH2 (not fully specified (bridges); cysteine pairing not given here) [Compound 114] | 18 nM |  |
| H-DTHFPCIIFGPRARGWVCK-NH2 (not fully specified (bridges); printed as Hy-DTHFPCIIFGPRARGWVCK-NH2; cysteine pairing not given here) [Compound 87] |  | > 1000 nM |
| H-DTHFPCIIFGPRSRGWVCK-NH2 (cysteine pairing not given here) [Compound 83] |  | > 1000 nM |
| {Palmitoyl-PEG11′}-DTHFPCIIFGPRSRGWVCK-NH2 (not fully specified (bridges); printed as Palm-PEG11-DTHFPCIIFGPRSRGWVCK-NH2; cysteine pairing not given here) [Compound 89] |  | > 1000 nM |
| Isovaleryl-DTHFPCIIFEPRSKGWVCK-NH2 (not fully specified (bridges); cysteine pairing not given here) [Compound 105] | 10 nM |  |
| {Isobutyryl-PEG11′}-DTHFPCIIFGPRSRGWVCK-NH2 (not fully specified (bridges); cysteine pairing not given here) [Compound 109] |  | > 1000 nM |
| Isovaleryl-HFPCIIFGPRSKGWVCM-NH2 (cysteine pairing not given here) [Compound 134] |  | > 1000 nM |
| Isovaleryl-DTHFPCIIFEPRSKGWVCK-NH2 (cysteine pairing not given here) [Compound 142] | 9 nM |  |
| H-DTHF[β3hP]CIIFGPRSRGWVCK-NH2 (not fully specified (bridges); printed as Hy-DTHF[bh-Pro]-CIIFGPRSRGWVCK-NH2; cysteine pairing not given here) [Compound 79] |  | > 1000 nM |

| Binder | Potency EC50 | Potency EC50 (nM) |
| --- | --- | --- |
| Isovaleryl-DTHFPCIIFEPRSKGWVCKKKK-NH2 (cysteine pairing not given here) [Compound 144] | 15 nM |  |
| H-DTHFPCIKFGPRSKGWVCM-NH2 (cysteine pairing not given here) [Compound 136] | 669 nM |  |
| H-DTHFPCIIFGPRSRGVCK-NH2 (not fully specified (bridges); printed as Hy-DTHFPCIIFGPRSRGVCK-NH2; cysteine pairing not given here) [Compound 84] |  | > 1000 nM |
| H-EDTHFPCIIFGPRSKGWVCK-NH2 (not fully specified (bridges); printed as Hy-EDTHFPCIIFGPRSKGWVCK-NH2; cysteine pairing not given here) [Compound 103] |  | > 1000 nM |
| H-DTHFPCISFGPRSKGWVCK-NH2 (not fully specified (bridges); printed as Hy-DTHFPCISFGPRSKGWVCK-NH2; cysteine pairing not given here) [Compound 101] |  | > 1000 nM |
| [Ida]THFPCIIFGPRSRGWVCK-NH2 (not fully specified (bridges); printed as [Ida]-THFPCIIFGPRSRGWVCK-NH2; cysteine pairing not given here) [Compound 110] | > 300 nM |  |
| {Octanoic acid-PEG11′}-DTHFPCIIFGPRSRGWVCK-NH2 (not fully specified (bridges); cysteine pairing not given here) [Compound 108] |  | > 1000 nM |
| H-DTHFPCIKFGPRSKGWVCK-NH2 (not fully specified (bridges); printed as Hy-DTHFPCIKFGPRSKGWVCK-NH2; cysteine pairing not given here) [Compound 102] |  | > 1000 nM |
| DTHFPCIKFKPRSKGWVCK (N-terminal isovaleric acid; PEG8 on side chain of Lys 10; C-terminal amide) [Compound 150] | 7 nM |  |
| Isovaleryl-DTHFPCIKFGPKSKGWVCK-NH2 (not fully specified (bridges); cysteine pairing not given here) [Compound 112] | 15 nM |  |
| Isovaleryl-DTKFPCIIFGPRSKGWVCK-NH2 (cysteine pairing not given here) [Compound 147] | 20 nM |  |
| H-THFPCIIFGPRSKGWVCM-NH2 (cysteine pairing not given here) [Compound 132] |  | > 1000 nM |
| H-DTHFPCIIFGPRSRGWRCK-NH2 (cysteine pairing not given here) [Compound 80] |  | > 1000 nM |
| Isovaleryl-DTHFPCIK(PEG8′)FGPRSKGWVCK-NH2 (cysteine pairing not given here) [Compound 149] | 9 nM |  |
| H-EDTHFPCIIFGPRSKGWVCM-NH2 (cysteine pairing not given here) [Compound 137] | 873 nM |  |
| Isovaleryl-DTHFPCIIFGPRSKGWCK-NH2 (not fully specified (bridges); cysteine pairing not given here) [Compound 113] | 15 nM |  |
| H-DTHFPCIRFGPRSRGWRCK-NH2 (cysteine pairing not given here) [Compound 82] |  | > 1000 nM |
